Laboratory results reported in doi:10.1101/2023.05.25.542299, “A Conserved Core Region of the Scaffold NEMO is Essential for Signal-induced Conformational Change and Liquid-liquid Phase Separation” (bioRxiv, 2023).

Tests used:
[1] = target: FITC-labeled 45-mer peptide derived from the C-terminal region of IKKβ (FITC label (position not given)); test: fluorescence polarisation; fluorescence anisotropy binding assay with the FITC-labeled IKKβ 45-mer peptide and NEMO proteins; conditions not told (refs 13, 23); settings: both partners purified
[2] = target: 45-mer peptide of IKKβ (as used in the CD experiments); test: circular dichroism (spectra and thermal denaturation with and without ligand); 10 µM NEMO protein with or without equimolar IKKβ 45-mer peptide, incubated 1 h at room temperature; 20 mM sodium phosphate, 500 mM NaCl, pH 7.4; spectra at 25 °C, melt 10 to 70 °C at 222 nm; settings: both partners purified

B1: 7XAla-NEMO (aa 1–419), bacterially expressed (natural protein)
chain: MNRHLWKSQLAEMVQPSGGPAADQDVLGEESPLGKPAMLHLPSEQGAPETLQRALEENQELRDAIRQSNQILRERAEELLHFQASQREEKEFLMAKFQEARKLVERLGLEKLDLKRQKEQALREVEHLKRAQQQMAEDKASVKAQVTSLLGELQESQSRLEAATKEAQALEGRARAASEQARQLESEREALQQQHSVQVDQLRMQGQSVEAALRMERQAASEEKRKLAQLQVAYHQLFQEYDNHIKSSVVGSERKRGMQLEDLKQQLQQAEEALVAKQEVIDKLKEEAEQHKIVMETVPVLKAQADIYKADFQAERQAREKLAEKKELLQEQLEQLQREYSKLKASAQESARIEDMRKRHVEVSQAPLPPAPAYLSSPLALPSQRRSPPEEPPDFCCPKCQYQAPDMDTLQIHVMECIE
With B1 the Kd [1] was 13 ± 2.9 nM and the “increase in Tm with equimolar peptide” value [2] was 3 °C.
